Data reported in IntAct's records for PubMed 20421493.

B1: Flagellar protein FliT (Salmonella typhimurium), P0A1N2 (parent)
chain: MTSTVEFINRWQRIALLSQSLLELAQRGEWDLLLQQEVSYLQSIETVMEKQTPPGITRSIQDMVAGYIKQTLDNEQLLKGLLQQRLDELSSLIGQSTRQKSLNNAYGRLSGMLLVPDAPGAS
partner: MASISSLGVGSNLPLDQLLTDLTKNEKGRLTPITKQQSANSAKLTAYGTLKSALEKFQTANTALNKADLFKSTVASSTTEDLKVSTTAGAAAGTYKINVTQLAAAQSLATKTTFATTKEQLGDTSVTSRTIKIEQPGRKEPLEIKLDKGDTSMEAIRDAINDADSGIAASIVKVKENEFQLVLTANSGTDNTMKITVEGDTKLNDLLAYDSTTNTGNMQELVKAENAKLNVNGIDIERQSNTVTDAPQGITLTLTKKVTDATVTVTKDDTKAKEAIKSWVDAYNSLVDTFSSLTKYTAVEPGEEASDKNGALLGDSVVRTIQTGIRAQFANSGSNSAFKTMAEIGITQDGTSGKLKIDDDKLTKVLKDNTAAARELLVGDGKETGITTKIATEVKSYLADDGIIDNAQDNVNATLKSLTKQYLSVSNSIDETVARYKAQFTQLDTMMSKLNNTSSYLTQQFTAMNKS

Variants of: B1
Details: with flid_salty fliD

Variant | effect of a mutation on the interaction
MTSTVEFINRWQRIALLSQSLLELAQRGEWDLLLQQEVSYLQSIETVMEKQTPPGITRSIQDMVAGYIKQTLDNEQLLAGLLQQRLDELSSLIGQSTRQKSLNNAYGRLSGMLLVPDAPGAS | disrupting interaction strength
MTSTVEFINRWQRIALLSQSLLELAQRGEWDLLLQQEVSYLQSIETVMEKQTPPGITRSIQDMVAGYIKQTLDNAQLLKGLLQQRLDELSSLIGQSTRQKSLNNAYGRLSGMLLVPDAPGAS | decreasing interaction strength
